Results as given in publication PMC2191786.

Molecular target: B7-1 on stably transfected B7-1+ Chinese hamster ovary (CHO) cells (human) (UniProt P33681)
Experiment: ELISA

Chain of UniProt P33681 (P33681 35-288): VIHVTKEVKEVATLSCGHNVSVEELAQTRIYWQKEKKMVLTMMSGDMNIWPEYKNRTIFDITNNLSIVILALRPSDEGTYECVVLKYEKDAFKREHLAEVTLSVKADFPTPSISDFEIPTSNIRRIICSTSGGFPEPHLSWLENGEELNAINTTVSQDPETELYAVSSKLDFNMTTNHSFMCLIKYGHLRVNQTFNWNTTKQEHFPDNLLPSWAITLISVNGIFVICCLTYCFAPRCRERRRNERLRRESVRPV

| Substance | percentage of B7-1 binding activity (of CTLA4Ig) |
| --- | --- |
| CTLA4Ig P102A (Fc fusion) | 3% |
| CTLA4Ig P103A (Fc fusion) | < 0.1% |
| CTLA4Ig Y100A (Fc fusion) | 3% |
| CTLA4Ig M99A (Fc fusion) | < 0.1% |
| CTLA4Ig Y104A (Fc fusion) | < 0.1% |
